Assay results published in article PMC2806920.

Columns and labels:
[1] = molecular target: Truncated recombinant LRRK2-G2019S (aa 970-2527) (human) (UniProt Q5S007)
[2] = molecular target: Truncated recombinant LRRK2 wild-type (aa 970-2527) (human) (UniProt Q5S007)

For “4E-BP (eukaryotic initiation factor 4E (eIF4E)-binding protein), His6-tagged 4E-BP1 (from UniProt Q13541 1-118) (natural protein)”, the Km for 4E-BP of its phosphorylation by LRRK2-G2019S (in vitro kinase assay, 33P incorporation, 12 nM LRRK2, 1.5-12 µM 4E-BP, Michaelis-Menten fit) [1] was 2.87 µM and the Km for 4E-BP of its phosphorylation by LRRK2 (in vitro kinase assay, 33P incorporation, 12 nM LRRK2, 1.5-12 µM 4E-BP, Michaelis-Menten fit) [2] was 2.69 µM.
